We go through two substances from paper PMC4350284.

Assay [1] has as its target STAT5A-eYFP (murine) (UniProt P42230).
Assay [2] concerns the target STAT5A (UniProt P42230). The experiment in a line: biotin-peptide precipitation from lysate, GFP blot. The note with it: reference: non-phosphorylated Src peptide; sites Y416.

“vSrc^Y416F-dsRed (from UniProt P00524 1-526) (enzyme)”: the subcellular distribution of STAT5A-eYFP in HeLa T-REx FRT cells expressing vSrc^Y416F-dsRed, nucleus/cytoplasm (n/c) ratio in assay [1] came out at 1. Consider “Src-peptide (activation loop of cSrc (vSrc), Yes and Fyn) (from UniProt P00523) pY416 Src peptide”, for which the “binding against the reference” value in assay [2] is “gained”.
